Experimental findings from paper PMC7229763 are described below.

For the series, the target named is T1, BAF-WT (Homo sapiens, UniProt O75531 1-89).
T1 sequence: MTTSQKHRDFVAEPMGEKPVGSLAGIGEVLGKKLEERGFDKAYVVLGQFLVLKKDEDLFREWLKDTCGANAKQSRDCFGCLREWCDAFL
The series can be described thus: ITC.

B1: ITC dsDNA (30 bp, same sequence as EMSA probe) (dsDNA)
DNA 1: GAATCCTAACTGGGCGGAGTTATGCTGGTG
DNA 2: CACCAGCATAACTCCGCCCAGTTAGGATTC
As to B1, the Ka is 1.89 ± 0.19 uM (as printed for KA; dimension inconsistent, possibly 10^6 M-1).
